Target: CD11b (alpha subunit of the Mac-1 receptor, CD11b/CD18) (human (endogenous in neutrophils)) (UniProt P11215)

Substance: Candida albicans secreted aspartyl protease 6 (Sap6) (from UniProt Q5AC08 19-418) (enzyme)
- ROS production after PMA in neutrophils incubated with Sap6 1200 ng/ml with CD11b blocked by an antibody, relative to PMA-stimulated control neutrophils (50% without the blockade): 85%
